# From paper PMC3563690 (The Journal of Cell Biology, 2013)
# B1: soluble neuroligin-2–Fc fusion protein (Fc fusion, UniProt Q69ZK9 15-676, looked up)
# chain: QRGGGGPGGGAPGGPGLGLGSLGEERFPVVNTAYGRVRGVRRELNNEILGPVVQFLGVPYATPPLGARRFQPPEAPASWPGVRNATTLPPACPQNLHGALPAIMLPVWFTDNLEAAATYVQNQSEDCLYLNLYVPTEDGPLTKKRDEATLNPPDTDIRDSGKKPVMLFLHGGSYMEGTGNMFDGSVLAAYGNVIVVTLNYRLGVLGFLSTGDQAAKGNYGLLDQIQALRWLSENIAHFGGDPERITIFGSGAGASCVNLLILSHHSEGLFQKAIAQSGTAISSWSVNYQPLKYTRLLAAKVGCDREDSTEAVECLRRKSSRELVDQDVQPARYHIAFGPVVDGDVVPDDPEILMQQGEFLNYDMLIGVNQGEGLKFVEDSAESEDGVSASAFDFTVSNFVDNLYGYPEGKDVLRETIKFMYTDWADRDNGEMRRKTLLALFTDHQWVAPAVATAKLHADYQSPVYFYTFYHHCQAEGRPEWADAAHGDELPYVFGVPMVGATDLFPCNFSKNDVMLSAVVMTYWTNFAKTGDPNQPVPQDTKFIHTKPNRFEEVVWSKFNSKEKQYLHIGLKPRVRDNYRANKVAFWLELVPHLHNLHTELFTTTTRLPPYATRWPPRTPGPGTSGTRRPPPPATLPPESDIDLGPRAYDRFPGDSRDYSTE
# Tests used:
# Assay in all cases: immunostaining of cells or tissue
# [1] = target: T1, HA-tagged mouse MDGA2 (mouse)
# T1 sequence (P60755 whole entry, looked up): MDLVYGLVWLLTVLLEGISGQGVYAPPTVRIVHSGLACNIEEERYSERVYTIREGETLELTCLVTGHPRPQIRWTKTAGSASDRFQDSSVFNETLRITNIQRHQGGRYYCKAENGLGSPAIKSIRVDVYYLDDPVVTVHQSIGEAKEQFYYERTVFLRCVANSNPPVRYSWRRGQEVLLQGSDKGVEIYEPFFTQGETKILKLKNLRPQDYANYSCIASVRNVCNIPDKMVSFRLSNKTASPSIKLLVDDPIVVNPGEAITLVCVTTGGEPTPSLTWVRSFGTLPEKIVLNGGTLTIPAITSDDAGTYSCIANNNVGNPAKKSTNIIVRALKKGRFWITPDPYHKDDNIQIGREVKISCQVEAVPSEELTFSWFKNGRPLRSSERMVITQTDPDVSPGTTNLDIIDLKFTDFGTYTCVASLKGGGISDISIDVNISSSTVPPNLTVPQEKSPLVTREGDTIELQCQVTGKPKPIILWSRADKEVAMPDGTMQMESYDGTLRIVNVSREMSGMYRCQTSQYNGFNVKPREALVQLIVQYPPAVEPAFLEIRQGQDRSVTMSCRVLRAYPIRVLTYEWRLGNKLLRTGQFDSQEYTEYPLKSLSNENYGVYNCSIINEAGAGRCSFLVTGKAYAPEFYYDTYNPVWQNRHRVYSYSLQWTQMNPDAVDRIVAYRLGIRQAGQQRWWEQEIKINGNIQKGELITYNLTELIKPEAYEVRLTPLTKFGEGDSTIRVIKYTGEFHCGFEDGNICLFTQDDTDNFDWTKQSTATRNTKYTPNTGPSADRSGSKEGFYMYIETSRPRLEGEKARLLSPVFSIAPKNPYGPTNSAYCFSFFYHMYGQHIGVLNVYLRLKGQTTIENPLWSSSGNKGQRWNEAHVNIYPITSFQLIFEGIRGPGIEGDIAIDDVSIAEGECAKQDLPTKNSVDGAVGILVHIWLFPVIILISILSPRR
# [2] = target: HA-neurexin1β(−S4) (mouse | rat)
# [3] = target: T2, extracellular HA-tagged rat MDGA1 (rat, UniProt P85171 19-933)
# T2 sequence (looked up): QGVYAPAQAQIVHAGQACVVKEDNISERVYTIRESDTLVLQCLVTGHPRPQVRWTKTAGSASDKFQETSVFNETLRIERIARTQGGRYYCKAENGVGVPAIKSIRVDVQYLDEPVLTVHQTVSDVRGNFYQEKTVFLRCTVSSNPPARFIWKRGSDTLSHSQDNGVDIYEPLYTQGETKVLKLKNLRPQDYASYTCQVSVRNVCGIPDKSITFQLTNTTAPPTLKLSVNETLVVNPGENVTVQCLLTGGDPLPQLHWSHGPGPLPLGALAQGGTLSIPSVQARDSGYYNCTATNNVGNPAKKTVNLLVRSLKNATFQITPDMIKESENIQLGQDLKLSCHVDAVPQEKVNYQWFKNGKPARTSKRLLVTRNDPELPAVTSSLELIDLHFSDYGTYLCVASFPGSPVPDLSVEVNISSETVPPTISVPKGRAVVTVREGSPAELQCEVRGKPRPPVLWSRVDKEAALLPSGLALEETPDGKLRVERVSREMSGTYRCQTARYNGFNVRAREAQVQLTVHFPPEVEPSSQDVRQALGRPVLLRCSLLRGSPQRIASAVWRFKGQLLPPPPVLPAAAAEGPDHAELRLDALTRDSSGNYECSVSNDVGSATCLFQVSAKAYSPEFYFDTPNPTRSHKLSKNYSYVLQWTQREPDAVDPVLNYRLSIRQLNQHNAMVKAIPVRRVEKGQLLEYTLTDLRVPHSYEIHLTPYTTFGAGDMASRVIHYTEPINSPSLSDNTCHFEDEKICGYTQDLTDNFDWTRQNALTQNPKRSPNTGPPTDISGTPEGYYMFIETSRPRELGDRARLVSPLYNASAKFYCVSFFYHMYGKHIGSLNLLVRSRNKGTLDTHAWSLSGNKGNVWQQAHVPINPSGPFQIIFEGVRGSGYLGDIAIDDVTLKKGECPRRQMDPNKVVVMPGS
Molecule,Kd [1],Kd [2],Kd [3]
soluble neuroligin-2–Fc fusion protein (from UniProt Q69ZK9 15-676),45.9 nM,8.4 nM,
B1,,,7.3 nM
